Paper PMC8253144 (mAbs, 2021)

B1: anti-EPHA2 Fab A2-3 (Fab, V domains shown)
VH: EVQLVESGGGLVQPGGSLRLSCAASGFNISYYYMHWVRQAPGKGLEWVASIYPSYSYTSYADSVKGRFTISADTSKNTAYLQMNSLRAEDTAVYYCARGGVVSWAHPAASYYVYGAMDYWGQGTLVTVSS
VL: DIQMTQSPSSLSASVGDRVTITCRASQSVSSAVAWYQQKPGKAPKLLIYSASSLYSGVPSRFSGSRSGTDFTLTISSLQPEDFATYYCQQAVWSGYPITFGQGTKVEIK
B2: anti-EPHA2 Fab A2-4 (Fab, V domains shown)
VH: EVQLVESGGGLVQPGGSLRLSCAASGFNISSYYMHWVRQAPGKGLEWVASISPSYSYTYYADSVKGRFTISADTSKNTAYLQMNSLRAEDTAVYYCARGWSFVGMDYWGQGTLVTVSS
VL: DIQMTQSPSSLSASVGDRVTITCRASQSVSSAVAWYQQKPGKAPKLLIYSASSLYSGVPSRFSGSRSGTDFTLTISSLQPEDFATYYCQQGAPWSPITFGQGTKVEIK

Biological target: recombinant human EPHA2 ectodomain (Homo sapiens, UniProt P29317)
Sequence (P29317 24-537): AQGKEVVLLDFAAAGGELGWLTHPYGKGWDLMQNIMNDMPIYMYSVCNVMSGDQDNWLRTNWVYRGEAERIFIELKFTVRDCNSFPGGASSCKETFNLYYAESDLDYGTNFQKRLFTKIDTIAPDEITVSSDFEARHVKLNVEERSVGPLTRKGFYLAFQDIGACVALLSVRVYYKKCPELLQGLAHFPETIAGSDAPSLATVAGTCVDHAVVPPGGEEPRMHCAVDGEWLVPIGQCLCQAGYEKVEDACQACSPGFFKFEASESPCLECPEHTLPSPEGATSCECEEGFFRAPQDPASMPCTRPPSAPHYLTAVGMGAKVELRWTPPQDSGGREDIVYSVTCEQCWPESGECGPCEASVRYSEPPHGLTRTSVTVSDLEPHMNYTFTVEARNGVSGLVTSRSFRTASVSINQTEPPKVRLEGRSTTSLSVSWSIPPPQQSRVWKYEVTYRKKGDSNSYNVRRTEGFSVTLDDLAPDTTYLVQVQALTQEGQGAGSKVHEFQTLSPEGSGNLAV
Experiment: BLI

Binder | binding result
B1 | binds
B2 | binds
